In patent US20070275001A1, “Rational Design and Engineering of Proteins and Peptides for Immunomodulation” (Arizona Board of Regents, priority 2004, published 2007):
No end group written: not given here.

What was measured:
[1] = corresponding value for the original scaffold protein; cited from earlier work
[2] = Chemical denaturation with guanidinium hydrochloride monitored by CD at 222 nm (thermodynamic stability); assay type: physicochemical
Method: The thermodynamic stability of the proteins was assessed by chemical denaturation studies, in which the CD signal at 222 nm was monitored at increasing concentrations of denaturant agent, guanidinium hydrochloride (FIG. 7B). A 1 cm path length rectangular quartz cell was used. The cell holder was temperature controlled at 25° C. The buffer was 10 mM potassium phosphate, pH 7.0. The bandwidth was 1.00 nm. At each GdnHCl concentration, cell chamber was equilibrated for 6 minutes, then data were collected. The curve is described by the equation: ΔGobs=ΔGH2O+m[GdnHCl] in which ΔGobs is the free energy for the two state unfolding equilibrium observed at a given concentration of GdnHCl, ΔGH2O is the free energy of denaturation extrapolated to zero GdnHCl concentration, m is a constant that provide a measure of the cooperativity of the process.
The resulting sigmoidal curve was analyzed to extrapolate the free energy of folding, ΔG, estimated to be −4.2 Kcal/mol; the corresponding ΔG for 1LQ7 is −4.6 Kcal/mol.

macrophages [3] = assay: Quantification of phagocytosis of IgG-opsonized FITC latex beads by flow cytometry (in vitro macrophage activation test); assay type: cell-based; details: cells stimulated overnight, then 30' with FITC beads conjugated with IgG
Method: The present invention discloses a method for rapid, quantitative in vitro testing for macrophage activation. Phagocytosis is a cytoskeleton-dependent process of engulfment of large particles. Phagocytes use various surface receptors to bind and internalize the foreign particles for processing the pathogens in lysosomes (phagolysosomes) for presentation of antigens to the immune system. The effects of Gc-MAF with both positive and negative controls of phagocytosis are determined. As positive controls, macrophages are also stimulated with Beta-1,3 glucans, a well-known immune stimulator, for functional comparison. Specifically, curdlan, linear (1,3)-Beta-D-glucans are used. […] Once the cells are suspended in the culture medium, quantification of phagocytosis is accomplished by flow cytometry. One unique feature of flow cytometry is that it measures fluorescence per cell or particle. FIG. 8 illustrates the quantification of phagocytosis by flow cytometry. […] A FACSCalibur (FACS=Fluorescence Activated Cell Sorter) system (Becton Dickinson) equipped with an air-cooled argon ion laser (488 nm, 15 mW output) is used for this study. Forward light scatter (FSC) and 90° light scatter (SSC) were measured at 488 nm and fluorescence emissions (FL parameters) were collected using the FSC as the triggering signal. Fluorescence data was reported by CellQuest software (Becton Dickinson). […]

macrophages [4] = details: cited from earlier work

1LQ7: stable designed three-helix bundle scaffold from the Protein Data Bank, originally designed at the University of Pennsylvania (chain 1 GSRVKALEEKVKALEEKVKALGGGG; chain 2 RIEELKKKWEELKKKIEELGGGG; chain 3 EVKKVEEEVKKLEEEIKKL; not fully specified (N-terminus); also: helices are one chain joined by GGGG loops)
free energy of folding, ΔG (scaffold) [1]: -19.2 kJ/mol

MM1: 69 residue three-helix bundle peptide: scaffold 1LQ7 with both loops replaced by Gc-MAF Domain III loop; non-glycosylated analog, negative control (chain 1 Ac-GSRVKALEEKVKALEEKVKALGNAT; chain 2 PTELAKKKWEELKKKIEELGNATPT; chain 3 EVKKVEEEVKKLEEEIKKL-NH2; not fully specified (N-terminus); also: helices are one chain joined by the loops, non-glycosylated)
free energy of folding, ΔG ([2]; GdnHCl denaturation, 25° C., 10 mM potassium phosphate, pH 7.0, extrapolated to zero GdnHCl): -17.6 kJ/mol
free energy of folding relative to that of the original scaffold protein, 1LQ7 ([2]; difference from 1LQ7): ≤ 30%
aggregation state ([2]; helical content at room temperature and free energy of folding independent of concentration, corroborated by equilibrium sedimentation): monomeric

B1: Gc-MAF: serum glycoprotein macrophage activating factor, formed from Vitamin D Binding Protein by post-translation modifications (protein, UniProt P02774 17-474, looked up)
Vitamin D-binding protein: LERGRDYEKNKVCKEFSHLGKEDFTSLSLVLYSRKFPSGTFEQVSQLVKEVVSLTEACCAEGADPDCYDTRTSALSAKSCESNSPFPVHPGTAECCTKEGLERKLCMAALKHQPQEFPTYVEPTNDEICEAFRKDPKEYANQFMWEYSTNYGQAPLSLLVSYTKSYLSMVGSCCTSASPTVCFLKERLQLKHLSLLTTLSNRVCSQYAAYGEKKSRLSNLIKLAQKVPTADLEDVLPLAEDITNILSKCCESASEDCMAKELPEHTVKLCDNLSTKNSKFEDCCQEKTAMDVFVCTYFMPAAQLPELPDVELPTNKDVCDPGNTKVMDKYTFELSRRTHLPEVFLSKVLEPTLKSLGECCDVEDSTTCFNAKGPLLKKELSSFIDKGQELCADYSENTFTEYKKKLAERLKAKLPDATPTELAKLVNKHSDFASNCCSINSPPLYCDSEIDAELKNIL
modifications: deglycosylated macrophage activating form
mean fluorescence intensity (macrophages [3]; FL1 channel, non-stimulated control 543±149): 724±155
percentage of cells positive to phagocytosis (M2) (macrophages [3]; non-stimulated control 43.6±10.3%): 57.5±6.6%
time to macrophage activation (macrophages [4]; enzymatically activated Gc-MAF given to Ehrlich ascite tumor-bearing mice): less than 6 hr
time to substantially increased initiation of antibody production (macrophages [4]; injection of Gc-MAF): ≤ 48 h
